# Assay results from patent EP4707292A2.
# Tests used:
# [1] = molecular target: Adeno-associated virus 9 (AAV9) virion (adeno-associated virus 9); assay: co-IP with ADK9/LC-MS/MS, AAV9 + human serum vs control
# [2] = molecular target: Adeno-associated virus 8 (AAV8) virion (adeno-associated virus 8); assay: co-IP/LC-MS/MS, AAV8 + human serum vs PBS control
# [3] = molecular target: Haploid virus AAV2/8 1:3 (adeno-associated virus 2; adeno-associated virus 8); assay: cell-based or functional assay
# [4] = molecular target: Adeno-associated virus 2 (AAV2) virion (adeno-associated virus 2); assay: cell-based or functional assay
# [5] = molecular target: Haploid virus AAV2/8 1:1 (adeno-associated virus 2; adeno-associated virus 8); assay: cell-based or functional assay
# [6] = molecular target: Adeno-associated virus 8 (AAV8) virion (adeno-associated virus 8); assay: cell-based or functional assay
# [7] = molecular target: Haploid virus AAV2/8 3:1 (adeno-associated virus 2; adeno-associated virus 8); assay: cell-based or functional assay
# Fibronectin, P02751 32-2477, sequence (P02751 32-2477 limits assumed): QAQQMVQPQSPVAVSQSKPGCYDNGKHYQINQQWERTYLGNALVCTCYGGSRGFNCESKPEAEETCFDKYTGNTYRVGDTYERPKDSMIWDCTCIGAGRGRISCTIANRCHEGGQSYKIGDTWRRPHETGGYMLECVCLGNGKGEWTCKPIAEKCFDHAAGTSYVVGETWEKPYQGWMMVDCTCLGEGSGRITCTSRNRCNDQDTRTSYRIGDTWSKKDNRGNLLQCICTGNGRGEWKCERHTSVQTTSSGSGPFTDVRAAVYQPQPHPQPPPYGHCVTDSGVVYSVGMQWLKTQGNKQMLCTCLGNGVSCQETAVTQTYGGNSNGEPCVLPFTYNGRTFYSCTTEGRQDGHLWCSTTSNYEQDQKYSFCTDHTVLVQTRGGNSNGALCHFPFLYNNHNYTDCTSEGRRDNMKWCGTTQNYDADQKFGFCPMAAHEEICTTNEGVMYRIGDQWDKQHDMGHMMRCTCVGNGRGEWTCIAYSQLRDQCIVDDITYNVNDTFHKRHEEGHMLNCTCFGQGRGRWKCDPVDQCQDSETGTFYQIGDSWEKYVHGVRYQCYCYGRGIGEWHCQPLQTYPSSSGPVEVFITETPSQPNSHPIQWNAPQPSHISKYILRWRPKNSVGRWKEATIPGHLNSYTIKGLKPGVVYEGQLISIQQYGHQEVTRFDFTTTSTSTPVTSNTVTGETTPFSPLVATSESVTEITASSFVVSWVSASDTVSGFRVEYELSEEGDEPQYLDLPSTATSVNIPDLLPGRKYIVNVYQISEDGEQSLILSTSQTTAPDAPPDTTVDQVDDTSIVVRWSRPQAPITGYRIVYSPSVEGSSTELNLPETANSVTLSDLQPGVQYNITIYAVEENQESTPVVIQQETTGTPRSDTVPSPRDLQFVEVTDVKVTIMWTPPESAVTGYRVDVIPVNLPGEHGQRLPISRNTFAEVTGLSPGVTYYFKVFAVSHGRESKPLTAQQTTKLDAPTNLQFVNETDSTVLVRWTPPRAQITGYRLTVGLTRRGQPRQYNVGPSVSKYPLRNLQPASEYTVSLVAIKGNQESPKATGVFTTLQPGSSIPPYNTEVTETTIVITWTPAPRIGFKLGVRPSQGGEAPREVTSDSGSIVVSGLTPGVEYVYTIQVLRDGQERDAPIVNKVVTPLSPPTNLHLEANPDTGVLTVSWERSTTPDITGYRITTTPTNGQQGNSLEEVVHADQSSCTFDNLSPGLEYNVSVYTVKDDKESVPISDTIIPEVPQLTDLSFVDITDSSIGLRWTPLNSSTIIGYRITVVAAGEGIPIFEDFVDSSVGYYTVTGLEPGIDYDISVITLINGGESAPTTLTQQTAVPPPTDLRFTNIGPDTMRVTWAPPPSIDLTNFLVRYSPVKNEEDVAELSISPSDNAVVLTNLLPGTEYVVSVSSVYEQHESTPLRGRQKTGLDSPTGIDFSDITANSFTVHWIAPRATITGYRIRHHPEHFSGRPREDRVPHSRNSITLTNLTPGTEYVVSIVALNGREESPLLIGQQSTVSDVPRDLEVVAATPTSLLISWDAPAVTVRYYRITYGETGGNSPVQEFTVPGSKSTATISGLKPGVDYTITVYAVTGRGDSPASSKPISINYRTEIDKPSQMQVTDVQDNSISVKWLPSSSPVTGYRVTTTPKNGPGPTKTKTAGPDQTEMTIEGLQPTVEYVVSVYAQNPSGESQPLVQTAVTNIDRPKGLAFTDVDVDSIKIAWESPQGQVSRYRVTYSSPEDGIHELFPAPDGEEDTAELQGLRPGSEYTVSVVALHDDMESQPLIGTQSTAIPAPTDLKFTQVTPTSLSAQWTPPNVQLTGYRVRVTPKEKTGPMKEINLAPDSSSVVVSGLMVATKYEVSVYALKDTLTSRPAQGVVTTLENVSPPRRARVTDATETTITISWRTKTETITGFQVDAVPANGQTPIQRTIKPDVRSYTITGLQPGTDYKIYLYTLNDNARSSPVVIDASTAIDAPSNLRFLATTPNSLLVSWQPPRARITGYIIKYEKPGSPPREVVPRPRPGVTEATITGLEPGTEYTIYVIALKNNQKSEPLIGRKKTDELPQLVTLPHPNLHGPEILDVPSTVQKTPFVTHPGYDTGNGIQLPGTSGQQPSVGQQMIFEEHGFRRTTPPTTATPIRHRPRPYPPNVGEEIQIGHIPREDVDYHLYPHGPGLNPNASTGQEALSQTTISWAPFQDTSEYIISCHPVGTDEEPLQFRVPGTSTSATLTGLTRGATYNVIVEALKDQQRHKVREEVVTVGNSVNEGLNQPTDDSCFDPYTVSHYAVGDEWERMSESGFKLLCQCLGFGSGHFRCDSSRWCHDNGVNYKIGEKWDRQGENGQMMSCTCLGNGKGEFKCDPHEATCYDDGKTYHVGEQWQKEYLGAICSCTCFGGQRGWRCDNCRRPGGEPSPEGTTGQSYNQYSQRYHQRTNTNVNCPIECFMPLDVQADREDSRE
# Ig kappa chain V-I region EU, sequence (P01602 23-117 limits assumed): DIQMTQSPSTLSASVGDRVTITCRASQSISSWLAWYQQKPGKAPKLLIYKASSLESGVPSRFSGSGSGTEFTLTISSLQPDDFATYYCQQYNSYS
substance,measurement,setting,value
Alpha-2-HS-glycoprotein (from UniProt C9JV77 19-301; C9JV77 342-368),fold change,[1],3.17 fold
same,fold change,[2],3.17 fold
Complement C4-A (from UniProt P0C0L4 20-1744),fold change,[1],2.42 fold
same,fold change,[2],2.42 fold
Fibrinogen gamma chain (Fragment) (from UniProt C9JU00 1-123),Fold increase,[1],8.36 fold
same,fold change,[1],0.417 fold
same,fold change,[2],0.417 fold
"Fibronectin, P02751 32-2477",Fold increase,[1],5.41 fold
same,fold change,[1],2.5 fold
same,fold change,[2],2.5 fold
Ig kappa chain V-I region EU (from UniProt P01602 23-117),fold change,[1],3.83 fold
same,fold change,[2],3.83 fold
Ig kappa chain V-III region SIE (from UniProt P01619 21-116),fold change,[1],2.79 fold
same,fold change,[2],2.79 fold
Ig lambda-2 chain C regions (from UniProt P0DOY2 1-106),fold change,[1],1.5 fold
same,fold change,[2],1.5 fold
Monoclonal antibody A20,Neutralization antibody titer (reciprocal dilution),[3],< 2
same,A20 neutralizing antibody titer (the dilution at first time inhibits AAV transduction over 50%) (reciprocal dilution),[4],640
same,Neutralization antibody titer (reciprocal dilution),[4],512
same,Neutralization antibody titer (reciprocal dilution),[5],32
same,Neutralization antibody titer (reciprocal dilution),[6],< 2
same,Neutralization antibody titer (reciprocal dilution),[7],2048
Monoclonal antibody ADK8,Neutralization antibody titer (reciprocal dilution),[3],1024
same,Neutralization antibody titer (reciprocal dilution),[4],< 2
same,Neutralization antibody titer (reciprocal dilution),[5],512
same,Neutralization antibody titer (reciprocal dilution),[6],1024
same,Neutralization antibody titer (reciprocal dilution),[7],512
Platelet factor 4 variant (from UniProt P10720 31-104),Fold increase,[1],1.47 fold
same,fold change,[1],0.938 fold
same,fold change,[2],0.938 fold
Transthyretin (from UniProt P02766 21-147),fold change,[1],5.55 fold
same,fold change,[2],5.55 fold
